Measured values reported in article PMC10463352, “A signaling complex of adenylate cyclase CyaC of Sinorhizobium meliloti with cAMP and the transcriptional regulators Clr and CycR” (BMC Microbiology, 2023).
One block for each molecule: values may come before it.

B1: CycR-Strep (natural protein, Sinorhizobium meliloti, UniProt Q92MZ5 1-213, looked up)
chain: MVLPRAARTQRRTRIQEEKEEQILEAALEVFSANGFRGSTIDQIADVAGMSKPNLLYYFRTKEAMHRALIDRVLDTWLDPLRAFDAEGNPVAEIRSYIRRKLEMARDFPRESRLFANEVLQGAPRIVDELKGPLKQLVDEKAEVIRSWAKAGKIAKCDPYHLIFAIWSTTQHYADFDVQVRAVLGQENAGEGRFEDAARFLERLFVDGLQVRE
notes: TetR-like transcriptional regulator CycR (TR01819, product of gene smc01819) of Sinorhizobium meliloti; CycR-Strep printed as 28.3 kDa; The purification is told in words only for Clr-Strep; also called Strep-CycR; TR01819; source: E. coli BL21(DE3) with pMW3065, purified; not shown: Strep, C-terminal, kept
B2: His6-CyaC (enzyme, Sinorhizobium meliloti, UniProt Q92MZ6 1-557, looked up)
chain: MTILSASTRKKMHLISGAVLGVFVLLHFSNHALGLVSIDAMETGRRIFTSVWQSIPGTALLYGALLLHFLMALDSLYRRQTFRMPVGEALKIIFGLSLPFLLVPHVVAARVEPLLSGVYPDYPAILRTLWSSSFNTSRQSLALIVVWGHACLGAWFWMRGRAWFPKYETLLYTVALLVPIFALLGFVNGARSLERDYAEHGGYGDRAYSSQAPRVDPNLLDKIRLAFYGGFASLIGGTLVLRALPARGRIRIRYPDGRVAAVSLGFSVLEASRAAGIPHVSVCGGRGRCSTCRVRITQGLEGQPPPEAAELATLTRIGAPENVRLACQFRPVHNVSVVPILDTDSLGIKTQLARQNAGGRERRVAVLFCDLRDFTRIAEHRLPYDTVFLLNRYFEVVGEAVEGSGGVVDKFIGDGALAIFGLKTPLPEACRQALSAAARLSQGIRALNQTFEGELEQPLRLAIGLHAGPAIIGEMGYGQATSLTVVGDTINTASRLEGLAKEHDVELAVSAELVERAGLSFEGHRRLEIGLRGRKATLETWIIGDAAQLSLSLPMQG
notes: His6-CyaC printed as 64.0 kDa; Solubilised in detergent; also called SMc01818 protein; source: E. coli C43(DE3) with pMW3043, extracted from membranes with 1% n-dodecyl-β-D-maltoside, purified (Ni2+-NTA); not shown: His6, N-terminal, kept

Columns and labels:
[1] = target: CyaC(K410A T484A), fused to the T18 or T25 fragment of Bordetella pertussis adenylate cyclase (Sinorhizobium meliloti); test: two-hybrid; bacterial adenylate cyclase two-hybrid (BACTH) in E. coli BTH101; T18 and T25 fusions co-expressed from plasmids; grown anaerobically in LB with 20 mM DMSO; β-galactosidase read-out, percent of the Zip-T18/Zip-T25 positive control
[2] = target: B2; test: SPR; Biacore T200, CM5 chip with StrepTactin; about 200 RU CycR-Strep captured; His6-CyaC injected at 10-5,000 nM; HBS-EP+ (10 mM HEPES pH 7.4, 150 mM NaCl, 3 mM EDTA, 0.05% P20), 25 °C; without cAMP; conditions: both partners purified
[3] = target: B2; test: SPR; Biacore T200, CM5 chip with StrepTactin; about 200 RU CycR-Strep captured; His6-CyaC injected at 10-5,000 nM; HBS-EP+ (10 mM HEPES pH 7.4, 150 mM NaCl, 3 mM EDTA, 0.05% P20), 25 °C; with 500 µM cAMP; conditions: both partners purified
[4] = target: B1; test: SPR; Biacore T200, CM5 chip with StrepTactin; about 200 RU CycR-Strep captured; His6-CyaC injected at 10-5,000 nM; HBS-EP+ (10 mM HEPES pH 7.4, 150 mM NaCl, 3 mM EDTA, 0.05% P20), 25 °C; without cAMP; conditions: both partners purified

BACTH β-galactosidase activity, percent of the Zip positive control [1]: 108%
Molecule: Clr (Smc02175), fused to the T18 or T25 fragment of Bordetella pertussis adenylate cyclase (natural protein)

Molecule: B1
Kd [2]: 160 nM | Kd [3]: 114 nM

Molecule: B2
stoichiometry N [4]: 1
